Patent US20240228595A1 (YALE UNIVERSITY, published 2024)
Where two headings read alike, the source gives them in different places.

Tests used:
[1] = biological target: T1, SARS-COV-2 RBD-his tag protein (Sino Biological) (SARS-CoV-2, UniProt P0DTC2 319-541)
[2] = biological target: T1, SARS-COV-2 RBD-his tag protein (Sino …); remark: listed apart in the source
[3] = biological target: T1, SARS-COV-2 RBD-his tag protein (Sino …); remark: listed apart in the source

B1: Clone 6 (antibody, V domains shown)
VH: QVQLQQSAAELARPGASVKMSCKASGYTFTSYTMHWVKQRPGQGLEWIGYINPTSGYTEYNQNFKDKTTLTADKSSSTAYMQLNSLTSEDSAVYYCAREGHRVGPAYWGQGTLVTVSA
VL: not shown
- Kd [1]: 0.148 nM
- koff [1]: 0.00056 s⁻¹
- kon [1]: 3.77e+06 M⁻¹ s⁻¹
- Kd [2]: 2.27 nM
- koff [2]: 0.00611 s⁻¹
- kon [2]: 2.69e+06 M⁻¹ s⁻¹

B2: Clone 16 (Clone6-KiH-Clone2) bispecific antibody (bispecific antibody)
heavy 1: not shown
light 1: DIVLTQSPASLAVSLGQRATISCRASESVDNYGISFMNWFQQTPGQPPKLLIYGSSNQGSGVPARFSGSGSGTDFSLNIHPMEEDDTAMYFCQQSKEVPYTFGGGTKLEIKRTVAAPSVFIFPPSDEQLKSGTASVVCLLNNFYPREAKVQWKVDNALQSGNSQESVTEQDSKDSTYSLSSTLTLSKADYEKHKVYACEVTHQGLSSPVTKSFNRGEC
heavy 2: not shown
light 2: DIVLTQSPASLAVSLGQRATISCRASESVEYYGTSLMQWYQQKPGQPPKVLIYAASNVESGVPARFSGSGSGTDFSLNIHPVEEDDIAMYFCQQSRKVPWTFGGGTKLEIKRSSASTKGPSVFPLAPSSKSTSGGTAALGCLVKDYFPEPVTVSWNSGALTSGVHTFPAVLQSSGLYSLSSVVTVPSSSLGTQTYICNVNHKPSNTKVDKKVEPKSC
- Kd [2]: 2.95 nM
- koff [2]: 0.00461 s⁻¹
- kon [2]: 1.56e+06 M⁻¹ s⁻¹

B3: Clone 2 (antibody, V domains shown)
VH: EVQLQQSGPELVKPGASVKISCKASGYSFTGYSMNWMKQSPEKSLEWIGEINPSTGGTTDNQKFKAKATLTVDKSSSTAYMQLKSLTSEDSAVYYCARSRGDYWGQGTSVTVSS
VL: DIVLTQSPASLAVSLGQRATISCRASESVEYYGTSLMQWYQQKPGQPPKVLIYAASNVESGVPARFSGSGSGTDFSLNIHPVEEDDIAMYFCQQSRKVPWTFGGGTKLEIKR
- Kd [3]: 0.00158 nM
- koff [3]: 1.49e-07 s⁻¹
- kon [3]: 94500 M⁻¹ s⁻¹
- Kd [1]: 0.0441 nM
- koff [1]: 7.09e-05 s⁻¹
- kon [1]: 1.61e+06 M⁻¹ s⁻¹
- Kd [2]: 1.67 nM
- koff [2]: 0.000853 s⁻¹
- kon [2]: 511000 M⁻¹ s⁻¹

B4: Clone 13 (antibody, human IgG1, kappa, V domains shown)
VH: EVQLVESGGGLVQPGGSLRLSCAASGFTFSGYSMNWVRQAPGKGLEWVAEINPSTGGTTDNQKFKARFTISRDNSKNTLYLQMNSLRAEDTAVYYCARSRGDYWGQGTLVTVSS
VL: DIQMTQSPSSLSASVGDRVTITCRASESVEYYGTSLMQWYQQKPGKAPKLLIYAASNVESGVPSRFSGSGSGTDFTLTISSLQPEDFATYYCQQSRKVPWTFGQGTKVEIKR
- Kd [2]: 4.17 nM
- koff [2]: 0.000497 s⁻¹
- kon [2]: 119000 M⁻¹ s⁻¹
